From patent US9828589B2, “Acyltransferases and uses thereof in fatty acid production” (priority 2009, dated 2017)
Entries after “also recorded” stand apart in the source; their conditions may differ.

How the values were obtained:
[1] = system: [14C]-18:1-Lysophosphatidlycholine (-LPC) and acyl-CoA; experiment: Determination of substrate specificity for LPLAT, lysophosphatidylcholine as acyl-acceptor (LPCAT assay); assay type: biochemical, Saccharomyces cerevisea; details: comparing FIG. 7 (10 mg/ml BSA) and FIG. 9 (0 mg/ml BSA)
Protocol: (§1) The specific activity of the enzymes LPLAT_18374 (Pi) and LPCAT_02075 (Pi) using the substrates indicated at the x-axis is gives as the amount (in nmol) of substrate/product consumed/produced in one minute per mg total protein and was determined as described in example 6. The specific activities measured for microsomal extracts of yeast harboring an empty vector (pYES2 ev) is shown as control.
as §1, with “AtLPCAT1-At1g12640, AtLPCAT2-At1g63050, BnLPCAT1” for “LPLAT_18374 (Pi)”, “BnLPCAT2” for “LPCAT_02075 (Pi)”

[2] = system: yeast mutant lacking LPAAT activity (knockout of the gene YDL052c); experiment: LPAAT activity assay using yeast extracts (complementation, formation of phosphatidic acid); details: complements knockout strain; TLC, FIG. 1
Protocol: Microsomal isolations of these transformants and the wildtype yeast strain BY4742 (lane marked “+”) where incubated with ^14C-labeled oleic acid and lysophosphatidic acid (LPA). Thin layer chromatography was performed to separate lipid classes.
The next day, expression of the acyltransferase polypeptides can be induced by transferring the cells to fresh media containing 2% galactose, for example by inoculating 100 ml of fresh culture to an optical density (measure at 600 nm) of OD600=0.1. Cells are harvested after 24 h incubation at 28° C. by centrifugation at 3000×g for 5 min and resuspended in 1 ml resuspention buffer (25 mM Tris/HCL pH 7.6) and disrupted using acid washed zirconium bead (200 μm average diameter) in a mill (Resch, Germany) by three minutes agitation at 300 rpm. The supernatant is transferred to a fresh tube and centrifuged at 3000×g for 5 min. The obtained supernatant is the crude extract. Protein content is measured according to Bradford (Bradford, M. M. (1976), Anal. Biochem. Bd. 72, pp. 248-254) with bovine serum albumin as standard. Assay mixtures contain 50 μg of protein, 10 μl of 10 mM [^14C]-glycerole-3-phosphate (2000 dpm/nmol), 10 μl of 1 mM 18:1-CoA in assay buffer (25 mM Tris/HCL pH 7.6, 0.5 mg/ml BSA) to give a total volume of 100 μl. Samples are incubated for 10 min at 30° C. The assays are terminated by extraction of the lipids into chloroform according to Blight and Dyer (Bligh, E. G. and Dyer, W. J. (1959), Can. J. Biochem. Physiol. 37, pp. 911-917). Lipids are separated on thin layer chromatography (TLC) silica 60 plates (Merck) using chloroform/methanol/acetic acid/water (90:15:10:3), and autoradiographic pictures are taken using an instant imager (Packard).

[3] = system: [14C]-18:1-LPA and acyl-CoA; experiment: Determination of substrate specificity for LPAAT (yeast microsomal fraction); assay type: biochemical, Saccharomyces cerevisea; details: comparing FIG. 5 (10 mg/ml BSA) and FIG. 6 (0 mg/ml BSA)
Protocol: as §1, with “enzyme LPAAT_13842” for “enzymes LPLAT_18374 (Pi) and LPCAT_02075”, “5.” for “6.”, “(pYES2.1” for “(pYES2”
as §1, with “BnLPAAT2” for “LPLAT_18374 (Pi)”, “AtLPAAT2-At3g57650” for “LPCAT_02075 (Pi)”, “5.” for “6.”

Row | Molecule | selectivity towards the length and the desaturation state of the substrate fatty acid [1] | LPAAT activity (formation of phosphatidic acid, PA) [2] | selectivity towards the length and the desaturation state of the substrate fatty acid [3]
1 | LPLAT_18374 (Pi): acyltransferase from Phythophtora infestance, 558 amino acids, SEQ-ID 8, encoded by SEQ-ID 7 (protein, Phythophtora infestance) MSTTALLQASTSPPPSREPEYAALEQLEPPLSHAIDMGVKVSPSESAAIAGGVYVTASSSCGASTIKHNPFTYTTPVDTYEKAKMTILCLLGVPFIRFVLLLCVGILLVIVSHLALIGYKPLDAHSGARPPLPRWRRIVGSPVPYLLRSLMLIVGYYWVPVKYPPNFNRHAMPRVIVSNHLTFFDGLYIFTLLSPSIAMKTDVANLPLISRIVQMIQPILIDRGTPEGRRRAMNDITSHVADPSKPPLLVFPEGTTSNQTVLCKFKVGSFVSGVPCQPVVLRYPYKHFDLSWPPGVSGLYLALRVLCQVYNRLEVEILPAYYPSERERKDPQLYAINVREVMAKALGVPTTNHAFEDVAMLMRVGDYATKHVVPLTDVGEVISLTALKRGDVDRLVGYFRRHDLDKDGHLSMQELRALFPNDDPVIVDQLFDLVDLDDSGLIDFRELCLALRALNPQNINEGDDALAKFAFRLYDLDNNGVIDASELEQLLRFQRNFYGVSEASVAAALRQAQAENTTGITYNRFEQLVLQNPEVLWYVRDKLEVLRGSMRESSLEIP | not as selective as AtLPAAT1 or AtLPCAT2 or BnLPCAT1 or BnLPCAT2 | having LPAAT activity; also recorded: have LPAAT activity | –
2 | LPAAT_13842 (Pi): acyltransferase from Phythophtora infestance, 424 amino acids, SEQ-ID 12, encoded by SEQ-ID 11 (protein, Phythophtora infestance) MSFATPAQVLQDVRFEERFAEIESRLPATLALAKEGSLAKRNQTKRKLYHDSELIRIELEERLNELGIESQWVTAPEMKEANEKLDAVRKQLKLDVLPASSSPLEKIYMVVRMLTMVLVLVGWLSCVTVLIPLKWLNPVLKKMGVKKNYLPMDIVSWGTAFMVCVTACTDMKAEGVENLLNLKDSVVCMFSHSSNLDGFIVNGSSPIAFKFAAKKSIFLVPFLGWSSRWGFDFVAIDRSHRKSALKSLKELAVSVNEHGNSVCISPEGTRSKDGLLQEFKKGPFYLREDTKKNVVPSIVFGAYELWPPGRLFSIPGHTLVRYLPEYKSDPNLNRNQNRLALRRIYLKAFTEDVPDYIGTRVSTNFILKNMFYHYLAWAITFKVTSWALTVISLVLYWLNITYGTFMLFSLVMMVAGEALMFFTC | – | having LPAAT activity; also recorded: have LPAAT activity | not as selective as AtLPAAT2 and BnLPAAT2
